B1: Activin A (protein, UniProt P08476 311-426, looked up)
Inhibin beta A chain: GLECDGKVNICCKKQFFVSFKDIGWNDWIIAPSGYHANYCEGECPSHIAGTSGSSLSFHSTVINHYRMRGHSPFANLKSCCVPTKLRPMSMLYYDDGQNIIKKDIQNMIVEECGCS
notes: TGF-beta family member used at 100 ng/ml to induce definitive endoderm
B2: Activin B (protein, UniProt P09529 293-407, looked up)
Inhibin beta B chain: GLECDGRTNLCCRQQFFIDFRLIGWNDWIIAPTGYYGNYCEGSCPAYLAGVPGSASSFHTAVVNQYRMRGLNPGTVNSCCIPTKLSTMSMLYFDDEYNIVKRDVPNMIVEECGCA

Assays:
hBS cells = assay: Sox17/Sox7 immunostaining of induced definitive endoderm; format: cell-based, human; conditions: after 4 days in Activin A
Excerpt: We used Activin A, and Activin A in combination with Wnt3a and/or FGF2 to generate DE. After 4 to 5 days in Stage 1 the hBS cell colony differentiated and genetic markers for early DE were examined using quantitative real-time real time-PCR (Q-PCR). Activin A induced a strong wave of early endoderm at day 3 to 5, and was highlighted by high expression levels of Sox17, HNF3beta (HNF3b or HNF3b) and Cxcr4 expression (FIG. 4) and then reduced to near baseline levels (data not shown). […] Furthermore they up regulate early liver markers like AFP or AAT. At this early stage in differentiation and development, this indicates the presence of extraembryonic endoderm (E×E) in intrinsically differentiating colonies (FIGS. 5 and 10). The expression data were confirmed by co-staining of Sox17/Sox7, Sox17/Cxcr4, Sox17/Oct4, Sox7/HNF3b (data not shown). […] The changes of gene expression after Activin A treatment were associated to morphological changes and distinct differentiation pattern of the colonies (FIG. 2). After 4 to 5 days induction with Activin A containing medium cells gathered together and formed a ring of epithelial cells around the colony. […]
Activin A induces definitive endoderm detected by a combination of Sox17+/Sox7-, 80-90% of the total cells in a Activin A or Activin A/FGF2 treated culture are estimated to be Sox17 positive and negative for Sox7 (manual counting in microscope). […]

hESC line SA002 = assay: Substituting Activin A with Activin B for induction of endoderm, real-time PCR; format: cell-based, human; conditions: 100 ng/ml with 5 ng/ml bFGF, 5 days
Procedure: Undifferentiated hESC line SA002 were exposed to either activin A (100 ng/ml) or activin B (100 ng/ml) in the presence of 5 ng/ml bFGF for 5 days and analyzed for gene expression.
mRNA expression of Foxa2, Sox17, CXCR4, Sox7, CDX2, MT was measured by real-time PCR using the ABI/TaqMan method. In short, RNA was isolated from the cell cultures by using Qiagen's RNeasy system. cDNA was synthesized by using the ABI high capacity cDNA synthesis kit. RT-PCR was performed in a ABI 7500 by using TaqMan probe. The expression level was normalized to CREBBP expression.

Row | Molecule | remaining cells Sox17 positive (hBS cells) | extraembryonal (ExE) markers Sox7, CDX2 and MT compared to activin A (hESC line SA002) | mRNA expression of endodermal markers Foxa2, Sox17 and CXCR4 compared to activin A (hESC line SA002)
1 | B1 | more than 70% | – | –
2 | B2 | – | the same or lower | either the same or even higher

Reference: patent publication US8951792B2, “Methods for making definitive endoderm hepatocyte (DE-hep) progenitor cells” (Cellartis AB, priority 2007, dated 2015)
